B1: BAG family molecular chaperone regulator 5 (Rattus norvegicus (Rat)), Q5QJC9 (parent)
chain: MDMGNQHPSISRLQEIQREVKSIEQQVVGFSGLSDDKNYKRLERILTKQLFEIDSVDTEGKGDIQQARKRAAQDTERLLKELEQNANHPHRIEIKNIFQEAQALVKEKTVPFYSGSNCVTSEFEEAIQDIILRLTHVKTGGKISLRKARYHTLTKICAVQEIIEDCVRKQPSLPLSEDVHPSVAKINSVMCEVNKARGTLIALLMGVDSSETCRHLSCVLSGLMADLDALDVCGRTEIRNYRREVVEDINKLLKYLDLEEEADNTHAFDLGQNHSIIKIENVLKRMREMKNELLQAQSPPELYLRSKTELQGLIGQLDEVSLEKNPCIREARRRAVIEVQTLITYLDLKEALEKRKLFPCEETPPHKAVWNVLGNLSEIQGEVLSFGGNRTDKNYIRLEELLTKQLLTLDAVDPLGEEKCKAARKQAVKLAQNILSYLDMKSDEWEY

Variants of: B1
Details: with chip_human STUB1, Q9UNE7
chip_human STUB1, Q9UNE7, sequence (Q9UNE7 whole entry): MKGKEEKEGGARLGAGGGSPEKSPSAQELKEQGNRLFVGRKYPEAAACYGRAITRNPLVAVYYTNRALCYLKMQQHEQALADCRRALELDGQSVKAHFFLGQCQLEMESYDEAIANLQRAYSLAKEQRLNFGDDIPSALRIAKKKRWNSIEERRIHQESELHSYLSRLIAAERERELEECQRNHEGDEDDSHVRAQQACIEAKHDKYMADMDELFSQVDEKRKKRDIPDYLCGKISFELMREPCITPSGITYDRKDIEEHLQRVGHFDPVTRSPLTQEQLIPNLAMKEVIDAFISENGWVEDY

With MDMGNQHPSISRLQEIQREVKSIEQQVVGFSGLSDDKNYKRLERILTKQLFEIASVDTEGKGDIQQAAKRAAQDTERLLKELEQNANHPHRIEIKNIFQEAQALVKEKTVPFYSGSNCVTSEFEEAIQDIILRLTHVKTGGKISLRKARYHTLTKICAVQEIIEDCVRKQPSLPLSEDVHPSVAKINSVMCEVNKARGTLIALLMGVDSSETCRHLSCVLSGLMADLAALDVCGRTEIRNYAREVVEDINKLLKYLDLEEEADNTHAFDLGQNHSIIKIENVLKRMREMKNELLQAQSPPELYLRSKTELQGLIGQLAEVSLEKNPCIREAARRAVIEVQTLITYLDLKEALEKRKLFPCEETPPHKAVWNVLGNLSEIQGEVLSFGGNRTDKNYIRLEELLTKQLLTLAAVDPLGEEKCKAAAKQAVKLAQNILSYLDMKSDEWEY [D54A;R68A;D228A;R242A;D318A;R332A;D410A;R424A] as the variant, how does the “effect of a mutation on the interaction” value read?
The value was “disrupting interaction”.

Reference: IntAct's records for PubMed 21358815
